The results in this text go back to article PMC9036092 (The Journal of Cell Biology, 2022).

Where no end group is shown, it is not given here. The star is where a group is joined. FITC = O=C1OC2(c3ccc(O)cc3Oc3cc(O)ccc32)c2ccc(NC(=S)*)cc21; Ahx = NCCCCCC(=O)O

B2: FITC-labeled peptide corresponding to residues 699–729 of BAP1 (peptide)
peptide: {FITC-Ahx}-RRRQGVSIGRLHKQRKPDRRKRSRPYKAKRQ

Holding throughout (test): fluorescence polarisation
(In general: Fluorescence polarisation rises when a labelled molecule tumbles more slowly, as on binding a larger partner.)

Assay [1] addresses FITC-labeled peptide corresponding to residues 699–729 of BAP1 (human).
Assay [2] addresses B2.
Assay [3] deals with Importin α5 (KPNA1), residues 66–512, without the IBB domain (UniProt P52294 66-512).
Sequence of Importin α5 (KPNA1), residues 66–512, without the IBB domain (P52294 66-512): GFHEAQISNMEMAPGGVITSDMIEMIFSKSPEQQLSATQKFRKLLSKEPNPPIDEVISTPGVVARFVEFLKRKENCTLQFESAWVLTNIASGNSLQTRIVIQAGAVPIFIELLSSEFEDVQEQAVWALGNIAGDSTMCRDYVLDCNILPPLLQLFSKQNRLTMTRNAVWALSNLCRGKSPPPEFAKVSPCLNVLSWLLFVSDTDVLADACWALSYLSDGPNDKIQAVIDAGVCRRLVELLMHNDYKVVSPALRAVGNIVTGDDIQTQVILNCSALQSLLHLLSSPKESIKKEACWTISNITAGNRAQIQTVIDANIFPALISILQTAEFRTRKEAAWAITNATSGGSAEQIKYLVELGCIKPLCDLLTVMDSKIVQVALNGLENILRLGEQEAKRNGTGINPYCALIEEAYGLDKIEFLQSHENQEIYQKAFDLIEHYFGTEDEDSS

Take “Importin α1 (KPNA2), residues 60–529, without the IBB domain (from UniProt P52292 60-529) (domain or fragment)”: in assay [1], the Kd (usually the concentration at which binding is half-saturated) was > 7.2 µM.

B1: Transportin-1 (TNPO1) with the acidic loop (residues 337–367) replaced by a GGSGGSG linker (natural protein)
chain: MEYEWKPDEQGLQQILQLLKESQSPDTTIQRTVQQKLEQLNQYPDFNNYLIFVLTKLKSEDEPTRSLSGLILKNNVKAHFQNFPNGVTDFIKSECLNNIGDSSPLIRATVGILITTIASKGELQNWPDLLPKLCSLLDSEDYNTCEGAFGALQKICEDSAEILDSDVLDRPLNIMIPKFLQFFKHSSPKIRSHAVACVNQFIISRTQALMLHIDSFIENLFALAGDEEPEVRKNVCRALVMLLEVRMDRLLPHMHNIVEYMLQRTQDQDENVALEACEFWLTLAEQPICKDVLVRHLPKLIPVLVNGMKYSDIDIILLKGDVEEDETIPDSEQDIRGGSGGSGDTISDWNLRKCSAAALDVLANVYRDELLPHILPLLKELLFHHEWVVKESGILVLGAIAEGCMQGMIPYLPELIPHLIQCLSDKKALVRSITCWTLSRYAHWVVSQPPDTYLKPLMTELLKRILDSNKRVQEAACSAFATLEEEACTELVPYLAYILDTLVFAFSKYQHKNLLILYDAIGTLADSVGHHLNKPEYIQMLMPPLIQKWNMLKDEDKDLFPLLECLSSVATALQSGFLPYCEPVYQRCVNLVQKTLAQAMLNNAQPDQYEAPDKDFMIVALDLLSGLAEGLGGNIEQLVARSNILTLMYQCMQDKMPEVRQSSFALLGDLTKACFQHVKPCIADFMPILGTNLNPEFISVCNNATWAIGEISIQMGIEMQPYIPMVLHQLVEIINRPNTPKTLLENTAITIGRLGYVCPQEVAPMLQQFIRPWCTSLRNIRDNEEKDSAFRGICTMISVNPSGVIQDFIFFCDAVASWINPKDDLRDMFCKILHGFKNQVGDENWRRFSDQFPLPLKERLAAFYGV
B1 returned a Kd in assay [2] of 0.0196 µM.
Molecule B2 showed a Kd in assay [3] of 0.67 µM.
